Holding throughout (experiment): LacI/LacO array recruitment in cells
One experiment has as its target T1, LacI-CFP-Nup133 (human, UniProt Q8WUM0 1-1156).
T1 sequence: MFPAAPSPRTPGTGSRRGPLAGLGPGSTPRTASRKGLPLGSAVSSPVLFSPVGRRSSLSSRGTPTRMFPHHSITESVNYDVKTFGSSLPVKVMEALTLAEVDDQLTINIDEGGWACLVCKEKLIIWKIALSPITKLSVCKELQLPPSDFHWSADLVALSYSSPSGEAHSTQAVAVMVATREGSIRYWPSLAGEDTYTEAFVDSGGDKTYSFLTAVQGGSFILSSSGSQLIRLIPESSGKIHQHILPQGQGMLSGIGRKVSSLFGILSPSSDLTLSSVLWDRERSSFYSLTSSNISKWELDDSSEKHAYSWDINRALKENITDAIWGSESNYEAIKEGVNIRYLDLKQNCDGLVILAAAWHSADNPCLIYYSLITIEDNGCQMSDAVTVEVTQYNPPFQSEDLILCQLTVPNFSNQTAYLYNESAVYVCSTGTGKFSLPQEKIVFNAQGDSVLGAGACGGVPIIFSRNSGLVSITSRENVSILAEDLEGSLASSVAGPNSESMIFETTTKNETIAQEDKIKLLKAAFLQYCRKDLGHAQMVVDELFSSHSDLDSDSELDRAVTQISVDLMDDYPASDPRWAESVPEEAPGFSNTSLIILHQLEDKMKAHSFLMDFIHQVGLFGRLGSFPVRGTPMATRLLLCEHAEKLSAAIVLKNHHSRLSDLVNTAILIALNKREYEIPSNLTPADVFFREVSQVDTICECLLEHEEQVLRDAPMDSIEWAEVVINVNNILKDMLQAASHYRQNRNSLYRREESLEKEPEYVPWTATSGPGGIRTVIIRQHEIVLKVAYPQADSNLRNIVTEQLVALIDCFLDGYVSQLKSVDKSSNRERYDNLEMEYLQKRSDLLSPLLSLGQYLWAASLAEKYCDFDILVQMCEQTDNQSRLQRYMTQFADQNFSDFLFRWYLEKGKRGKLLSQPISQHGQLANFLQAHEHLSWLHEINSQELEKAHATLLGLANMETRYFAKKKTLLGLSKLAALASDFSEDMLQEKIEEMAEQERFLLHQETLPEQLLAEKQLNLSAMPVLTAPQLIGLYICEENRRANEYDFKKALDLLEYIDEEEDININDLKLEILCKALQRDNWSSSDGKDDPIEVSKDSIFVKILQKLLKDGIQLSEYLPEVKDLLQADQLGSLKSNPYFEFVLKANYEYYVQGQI

A further experiment deals with T2, LacI-CFP-Nup107 (human, UniProt P57740 1-925).
T2 sequence: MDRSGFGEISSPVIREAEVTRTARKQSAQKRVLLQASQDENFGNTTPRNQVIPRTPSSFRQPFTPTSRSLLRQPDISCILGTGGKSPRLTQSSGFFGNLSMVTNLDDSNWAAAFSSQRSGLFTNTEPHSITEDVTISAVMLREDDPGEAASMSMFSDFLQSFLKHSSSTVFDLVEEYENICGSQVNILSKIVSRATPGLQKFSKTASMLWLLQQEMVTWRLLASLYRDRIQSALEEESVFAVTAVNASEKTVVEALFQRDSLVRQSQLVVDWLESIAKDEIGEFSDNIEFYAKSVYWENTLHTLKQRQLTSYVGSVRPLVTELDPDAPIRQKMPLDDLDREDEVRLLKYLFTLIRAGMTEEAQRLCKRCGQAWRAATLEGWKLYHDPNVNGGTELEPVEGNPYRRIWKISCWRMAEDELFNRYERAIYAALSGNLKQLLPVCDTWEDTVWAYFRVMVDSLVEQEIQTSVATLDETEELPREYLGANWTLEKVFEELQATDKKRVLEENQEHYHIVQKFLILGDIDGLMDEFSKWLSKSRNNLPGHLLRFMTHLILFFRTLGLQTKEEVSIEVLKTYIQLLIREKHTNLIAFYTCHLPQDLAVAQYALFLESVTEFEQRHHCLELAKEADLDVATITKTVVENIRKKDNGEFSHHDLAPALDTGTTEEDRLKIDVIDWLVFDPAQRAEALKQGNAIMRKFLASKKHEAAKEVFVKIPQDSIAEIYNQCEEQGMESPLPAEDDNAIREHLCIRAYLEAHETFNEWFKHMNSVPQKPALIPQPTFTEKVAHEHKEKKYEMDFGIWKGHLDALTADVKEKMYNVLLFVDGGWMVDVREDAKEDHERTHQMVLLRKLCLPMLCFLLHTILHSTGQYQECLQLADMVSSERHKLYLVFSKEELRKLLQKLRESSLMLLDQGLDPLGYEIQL

The target in the next experiment is T3, LacI-CFP-Nup50 (human, UniProt Q9UKX7 1-468).
T3 sequence: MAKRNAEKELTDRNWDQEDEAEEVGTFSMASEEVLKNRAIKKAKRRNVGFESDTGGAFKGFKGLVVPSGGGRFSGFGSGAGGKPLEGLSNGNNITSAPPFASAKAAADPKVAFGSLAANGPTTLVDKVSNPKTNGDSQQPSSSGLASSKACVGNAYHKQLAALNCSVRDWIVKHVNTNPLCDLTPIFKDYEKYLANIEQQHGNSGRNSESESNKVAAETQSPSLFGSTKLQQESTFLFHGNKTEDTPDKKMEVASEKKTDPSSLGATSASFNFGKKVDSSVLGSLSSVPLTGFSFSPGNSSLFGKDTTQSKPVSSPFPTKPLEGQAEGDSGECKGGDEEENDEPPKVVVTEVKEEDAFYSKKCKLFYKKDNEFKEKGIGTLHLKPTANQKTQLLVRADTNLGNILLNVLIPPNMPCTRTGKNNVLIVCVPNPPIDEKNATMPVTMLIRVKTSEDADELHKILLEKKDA

B1: Nup93 (endogenous) (natural protein)
chain: MDTEGFGELLQQAEQLAAETEGISELPHVERNLQEIQQAGERLRSRTLTRTSQETADVKASVLLGSRGLDISHISQRLESLSAATTFEPLEPVKDTDIQGFLKNEKDNALLSAIEESRKRTFGMAEEYHRESMLVEWEQVKQRILHTLLASGEDALDFTQESEPSYISDVGPPGRSSLDNIEMAYARQIYIYNEKIVNGHLQPNLVDLCASVAELDDKSISDMWTMVKQMTDVLLTPATDALKNRSSVEVRMEFVRQALAYLEQSYKNYTLVTVFGNLHQAQLGGVPGTYQLVRSFLNIKLPAPLPGLQDGEVEGHPVWALIYYCMRCGDLLAASQVVNRAQHQLGEFKTWFQEYMNSKDRRLSPATENKLRLHYRRALRNNTDPYKRAVYCIIGRCDVTDNQSEVADKTEDYLWLKLNQVCFDDDGTSSPQDRLTLSQFQKQLLEDYGESHFTVNQQPFLYFQVLFLTAQFEAAVAFLFRMERLRCHAVHVALVLFELKLLLKSSGQSAQLLSHEPGDPPCLRRLNFVRLLMLYTRKFESTDPREALQYFYFLRDEKDSQGENMFLRCVSELVIESREFDMILGKLENDGSRKPGVIDKFTSDTKPIINKVASVAENKGLFEEAAKLYDLAKNADKVLELMNKLLSPVVPQISAPQSNKERLKNMALSIAERYRAQGISANKFVDSTFYLLLDLITFFDEYHSGHIDRAFDIIERLKLVPLNQESVEERVAAFRNFSDEIRHNLSEVLLATMNILFTQFKRLKGTSPSSSSRPQRVIEDRDSQLRSQARTLITFAGMIPYRTSGDTNARLVQMEVLMN
Turning to B1, the figures for the “percent of transfected cells showing colocalization” value (from here on “percent”) with LacI-CFP-Nup133 and with LacI-CFP-Nup107 were 21% and 9%, respectively.

B2: Nup53 (endogenous) (natural protein)
chain: MAAFAVEPQGPALGSEPMMLGSPTSPKPGVNAQFLPGFLMGDLPAPVTPQPRSISGPSVGVMEMRSPLLAGGSPPQPVVPAHKDKSGAPPVRSIYDDISSPGLGSTPLTSRRQPNISVMQSPLVGVTSTPGTGQSMFSPASIGQPRKTTLSPAQLDPFYTQGDSLTSEDHLDDSWVTVFGFPQASASYILLQFAQYGNILKHVMSNTGNWMHIRYQSKLQARKALSKDGRIFGESIMIGVKPCIDKSVMESSDRCALSSPSLAFTPPIKTLGTPTQPGSTPRISTMRPLATAYKASTSDYQVISDRQTPKKDESLVSKAMEYMFGW
With B2, the figures for the “percent” value with LacI-CFP-Nup133 and with LacI-CFP-Nup50 were 20% and 6%, respectively.

B3: Nup160 (endogenous) (natural protein)
chain: MLHLSAAPPAPPPEVTATARPCLCSVGRRGDGGKMAAAGALERSFVELSGAERERPRHFREFTVCSIGTANAVAGAVKYSESAGGFYYVESGKLFSVTRNRFIHWKTSGDTLELMEESLDINLLNNAIRLKFQNCSVLPGGVYVSETQNRVIILMLTNQTVHRLLLPHPSRMYRSELVVDSQMQSIFTDIGKVDFTDPCNYQLIPAVPGISPNSTASTAWLSSDGEALFALPCASGGIFVLKLPPYDIPGMVSVVELKQSSVMQRLLTGWMPTAIRGDQSPSDRPLSLAVHCVEHDAFIFALCQDHKLRMWSYKEQMCLMVADMLEYVPVKKDLRLTAGTGHKLRLAYSPTMGLYLGIYMHAPKRGQFCIFQLVSTESNRYSLDHISSLFTSQETLIDFALTSTDIWALWHDAENQTVVKYINFEHNVAGQWNPVFMQPLPEEEIVIRDDQDPREMYLQSLFTPGQFTNEALCKALQIFCRGTERNLDLSWSELKKEVTLAVENELQGSVTEYEFSQEEFRNLQQEFWCKFYACCLQYQEALSHPLALHLNPHTNMVCLLKKGYLSFLIPSSLVDHLYLLPYENLLTEDETTISDDVDIARDVICLIKCLRLIEESVTVDMSVIMEMSCYNLQSPEKAAEQILEDMITIDVENVMEDICSKLQEIRNPIHAIGLLIREMDYETEVEMEKGFNPAQPLNIRMNLTQLYGSNTAGYIVCRGVHKIASTRFLICRDLLILQQLLMRLGDAVIWGTGQLFQAQQDLLHRTAPLLLSYYLIKWGSECLATDVPLDTLESNLQHLSVLELTDSGALMANRFVSSPQTIVELFFQEVARKHIISHLFSQPKAPLSQTGLNWPEMITAITSYLLQLLWPSNPGCLFLECLMGNCQYVQLQDYIQLLHPWCQVNVGSCRFMLGRCYLVTGEGQKALECFCQAASEVGKEEFLDRLIRSEDGEIVSTPRLQYYDKVLRLLDVIGLPELVIQLATSAITEAGDDWKSQATLRTCIFKHHLDLGHNSQAYEALTQIPDSSRQLDCLRQLVVVLCERSQLQDLVEFPYVNLHNEVVGIIESRARAVDLMTHNYYELLYAFHIYRHNYRKAGTVMFEYGMRLGREVRTLRGLEKQGNCYLAALNCLRLIRPEYAWIVQPVSGAVYDRPGASPKRNHDGECTAAPTNRQIEILELEDLEKECSLARIRLTLAQHDPSAVAVAGSSSAEEMVTLLVQAGLFDTAISLCQTFKLPLTPVFEGLAFKCIKLQFGGEAAQAEAWAWLAANQLSSVITTKESSATDEAWRLLSTYLERYKVQNNLYHHCVINKLLSHGVPLPNWLINSYKKVDAAELLRLYLNYDLLEEAVDLVSEYVDAVLGKGHQYFGIEFPLSATAPMVWLPYSSIDQLLQALGENSANSHNIALSQKILDKLEDYQQKVDKATRDLLYRRTL
With B3, the “percent” value in the experiment with LacI-CFP-Nup133 is 44%; in the experiment with LacI-CFP-Nup107 it was 39%; in the experiment with LacI-CFP-Nup50, 4%.

B4: Nup62 (endogenous) (natural protein)
chain: MSGFNFGGTGAPTGGFTFGTAKTATTTPATGFSFSTSGTGGFNFGAPFQPATSTPSTGLFSLATQTPATQTTGFTFGTATLASGGTGFSLGIGASKLNLSNTAATPAMANPSGFGLGSSNLTNAISSTVTSSQGTAPTGFVFGPSTTSVAPATTSGGFSFTGGSTAQPSGFNIGSAGNSAQPTAPATLPFTPATPAATTAGATQPAAPTPTATITSTGPSLFASIATAPTSSATTGLSLCTPVTTAGAPTAGTQGFSLKAPGAASGTSTTTSTAATATATTTSSSSTTGFALNLKPLAPAGIPSNTAAAVTAPPGPGAAAGAAASSAMTYAQLESLINKWSLELEDQERHFLQQATQVNAWDRTLIENGEKITSLHREVEKVKLDQKRLDQELDFILSQQKELEDLLSPLEELVKEQSGTIYLQHADEEREKTYKLAENIDAQLKRMAQDLKDIIEHLNTSGAPADTSDPLQQICKILNAHMDSLQWIDQNSALLQRKVEEVTKVCEGRRKEQERSFRITFD
Turning to B4, the figures for the “percent” value with LacI-CFP-Nup133, with LacI-CFP-Nup107 and in the experiment with LacI-CFP-Nup50 were 5%, 24% and 43%, respectively.

Values taken from publication PMC4615246 (Nucleus, 2015).
